This note sets out measurements from article PMC11570840.

The target of assay [1] is β2-adrenergic receptor C terminally fused with RlucII (β2AR-RlucII) (UniProt P07550). The assay can be described thus: FRET or BRET; live HEK293 cells co-transfected with donor β2AR-RlucII and acceptor NES-Venus-mGs, -mGsi or -mGsq; 48 h after transfection stimulated 20 min with increasing concentrations of ISO; 5 μM coelenterazine H in PBS; data as % of maximal ISO-induced mGs recruitment.

Assay [2] shares this target. Put plainly: FRET or BRET; live HEK293 cells co-transfected with donor β2AR-RlucII and acceptor NES-Venus-mGsq; stimulated 20 min with increasing concentrations of ISO, epinephrine, norepinephrine or formoterol; data as % of maximal ISO-induced mGsq recruitment.

NES-Venus-mGsi (mini G protein mGsi) came in with an efficacy of ISO-induced recruitment, % of mGs in assay [1] of 60%.

For the substance NES-Venus-mGsq (mini G protein mGsq), the efficacy of ISO-induced recruitment, % of mGs in assay [1] worked out at 20%. In assay [2], this substance came in with an efficacy of recruitment with epinephrine, % of ISO of 60%; an efficacy of recruitment with formoterol, % of ISO of 80%; an efficacy of recruitment with norepinephrine, % of ISO of 40%.
